B1: dA59 (ssDNA)
DNA: AAAAAAAAAAAAAAAAAAAAAAAAAAAAAAAAAAAAAAAAAAAAAAAAAAAAAAAAAAA
B2: dA59 (spectroscopy) (ssDNA)
DNA: AAAAAAAAAAAAAAAAAAAAAAAAAAAAAAAAAAAAAAAAAAAAAAAAAAAAAAAAAAA

Legend:
Hfq = Hfq (Escherichia coli, UniProt P0A6X3 1-102); experiment: fluorescence anisotropy; Anisotropy: buffer not given in material (as Geinguenaud 2011); pH ~5 stated for DNA complex formation; microscopy: Hfq stock in 50 mM Tris-HCl pH 7.5, 50 mM NH4Cl, 10% glycerol, 1 mM EDTA, exchanged to TE (10 mM Tris-HCl pH 8, 1 mM EDTA); TEM: 10 mM Tris-HCl, 1 mM EDTA, room temperature, 10 min; conditions: protein: recombinant; chain copies: 6; label: 5'-fluorescein
Hfq, sequence (P0A6X3 whole entry): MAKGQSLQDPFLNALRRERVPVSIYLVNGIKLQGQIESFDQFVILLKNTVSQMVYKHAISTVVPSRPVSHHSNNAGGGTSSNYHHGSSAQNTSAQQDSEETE

Hfq-CTR peptide = biological target: T1, Hfq-CTR peptide (Escherichia coli, UniProt P0A6X3 64-102); experiment: FTIR and SRCD; pH ~5; Anisotropy: buffer not given in material (as Geinguenaud 2011); pH ~5 stated for DNA complex formation; microscopy: Hfq stock in 50 mM Tris-HCl pH 7.5, 50 mM NH4Cl, 10% glycerol, 1 mM EDTA, exchanged to TE (10 mM Tris-HCl pH 8, 1 mM EDTA); TEM: 10 mM Tris-HCl, 1 mM EDTA, room temperature, 10 min
T1 chain: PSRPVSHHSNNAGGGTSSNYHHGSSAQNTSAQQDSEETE

Row | Binder | Kd (Hfq) | binding result (Hfq-CTR peptide)
1 | AAAAAAAAAAAAAAAAAAAA (ssDNA) [dA20] | 183 ± 8 nM | 
2 | AAAAAAA (ssDNA) [dA7] | 3500 ± 200 nM | 
3 | B1 | 166 ± 16 nM | 
4 | B2 |  | binds

Reference: publication PMC10392684, “Amyloid-like Hfq interaction with single-stranded DNA: involvement in recombination and replication in Escherichia coli”
